According to paper PMC7057348:

Assays:
Test in all cases: SPR; Biacore T200; omalizumab, Fabs and scFv immobilised on CM5 chips by amine coupling; IgE-Fc injected in a twofold dilution series (100-0.4 nM), 20 µl/min, 240 s association, 900 s dissociation; 25°C; 20 mM HEPES pH 7.4, 150 mM NaCl, 0.005% (v/v) surfactant P20; biphasic model with one higher-affinity and one lower-affinity interaction
[1] = target: FabXol2 (omalizumab-derived Ser81Arg, Gln83Arg light-chain mutant Fab)
[2] = target: FabXol (wild-type omalizumab Fab)
[3] = target: scFvXol (omalizumab-derived scFv)
[4] = target: FabXol3 (omalizumab-derived Ser81Arg, Gln83Arg, Leu158Pro light-chain mutant Fab)
[5] = target: Omalizumab (intact anti-IgE monoclonal IgG1 antibody)

**Q.** What does the source list for “IgE-Fc (Fc region of immunoglobulin E) (domain or fragment)”?
**A.** koff1 (biphasic model) [1]: 0.00045 s⁻¹; koff2 (biphasic model) [1]: 0.011 s⁻¹; kon1 (biphasic model) [1]: 510000 M⁻¹ s⁻¹; kon2 (biphasic model) [1]: 330000 M⁻¹ s⁻¹; koff1 (biphasic model) [2]: 0.00056 s⁻¹; koff2 (biphasic model) [2]: 0.012 s⁻¹; kon1 (biphasic model) [2]: 570000 M⁻¹ s⁻¹; kon2 (biphasic model) [2]: 440000 M⁻¹ s⁻¹; koff1 (biphasic model) [3]: 0.00029 s⁻¹; koff2 (biphasic model) [3]: 0.0087 s⁻¹; kon1 (biphasic model) [3]: 690000 M⁻¹ s⁻¹; kon2 (biphasic model) [3]: 310000 M⁻¹ s⁻¹; koff1 (biphasic model) [4]: 0.00033 s⁻¹; koff2 (biphasic model) [4]: 0.009 s⁻¹; kon1 (biphasic model) [4]: 970000 M⁻¹ s⁻¹; kon2 (biphasic model) [4]: 270000 M⁻¹ s⁻¹; koff1 (biphasic model) [5]: 0.0007 s⁻¹; koff2 (biphasic model) [5]: 0.012 s⁻¹; kon1 (biphasic model) [5]: 330000 M⁻¹ s⁻¹; kon2 (biphasic model) [5]: 290000 M⁻¹ s⁻¹
